Data from publication PMC7098639.

Key:
Experiment in all cases: FRET or BRET; biosensor lysate at three concentrations (200,000, 400,000 and 800,000 RLU) incubated with VEGF ranges adjusted for each biosensor; Delta eBRET2 ratio against the biosensor without VEGF
[1] = target: eBRET2 VEGF biosensor Re07 (Rluc8 - VEGF receptor 2 domains 2 and 3 - GFP2) (human)
[2] = target: eBRET2 VEGF biosensor Re09 (Rluc8 - VEGF receptor 1 domain 2 - VEGF receptor 2 domain 3 - GFP2) (human)
[3] = target: eBRET2 VEGF biosensor Re06 (Rluc8 - VEGF receptor 2 domain 3 - GFP2) (human)
Chain of eBRET2 VEGF biosensor Re06 (Rluc8 - VEGF receptor 2 domain 3 - GFP2) (human) (P35968 20-764): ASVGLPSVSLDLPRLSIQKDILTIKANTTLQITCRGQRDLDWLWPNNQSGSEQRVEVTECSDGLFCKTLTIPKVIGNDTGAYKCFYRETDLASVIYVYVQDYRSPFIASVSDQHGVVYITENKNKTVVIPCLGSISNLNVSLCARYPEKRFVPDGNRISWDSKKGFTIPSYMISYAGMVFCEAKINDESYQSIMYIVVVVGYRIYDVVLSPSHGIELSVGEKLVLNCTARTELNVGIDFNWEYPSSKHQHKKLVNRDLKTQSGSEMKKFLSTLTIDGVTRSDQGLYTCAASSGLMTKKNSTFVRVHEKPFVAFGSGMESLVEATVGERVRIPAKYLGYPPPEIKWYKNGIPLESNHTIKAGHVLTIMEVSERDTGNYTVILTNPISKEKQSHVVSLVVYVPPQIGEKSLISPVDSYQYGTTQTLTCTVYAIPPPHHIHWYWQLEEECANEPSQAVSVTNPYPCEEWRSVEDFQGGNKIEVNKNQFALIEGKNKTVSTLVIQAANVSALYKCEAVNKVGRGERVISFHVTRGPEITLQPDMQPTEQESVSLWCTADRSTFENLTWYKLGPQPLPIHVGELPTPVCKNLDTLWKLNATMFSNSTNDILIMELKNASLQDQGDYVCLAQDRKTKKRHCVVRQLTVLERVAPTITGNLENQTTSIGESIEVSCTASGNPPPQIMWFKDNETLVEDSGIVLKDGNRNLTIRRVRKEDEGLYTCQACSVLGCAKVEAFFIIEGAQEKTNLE

[4] = target: eBRET2 VEGF biosensor Re02 (Rluc8 - VEGF receptor 1 domain 3 - GFP2) (human)
Chain of eBRET2 VEGF biosensor Re02 (Rluc8 - VEGF receptor 1 domain 3 - GFP2) (human) (P17948 27-758): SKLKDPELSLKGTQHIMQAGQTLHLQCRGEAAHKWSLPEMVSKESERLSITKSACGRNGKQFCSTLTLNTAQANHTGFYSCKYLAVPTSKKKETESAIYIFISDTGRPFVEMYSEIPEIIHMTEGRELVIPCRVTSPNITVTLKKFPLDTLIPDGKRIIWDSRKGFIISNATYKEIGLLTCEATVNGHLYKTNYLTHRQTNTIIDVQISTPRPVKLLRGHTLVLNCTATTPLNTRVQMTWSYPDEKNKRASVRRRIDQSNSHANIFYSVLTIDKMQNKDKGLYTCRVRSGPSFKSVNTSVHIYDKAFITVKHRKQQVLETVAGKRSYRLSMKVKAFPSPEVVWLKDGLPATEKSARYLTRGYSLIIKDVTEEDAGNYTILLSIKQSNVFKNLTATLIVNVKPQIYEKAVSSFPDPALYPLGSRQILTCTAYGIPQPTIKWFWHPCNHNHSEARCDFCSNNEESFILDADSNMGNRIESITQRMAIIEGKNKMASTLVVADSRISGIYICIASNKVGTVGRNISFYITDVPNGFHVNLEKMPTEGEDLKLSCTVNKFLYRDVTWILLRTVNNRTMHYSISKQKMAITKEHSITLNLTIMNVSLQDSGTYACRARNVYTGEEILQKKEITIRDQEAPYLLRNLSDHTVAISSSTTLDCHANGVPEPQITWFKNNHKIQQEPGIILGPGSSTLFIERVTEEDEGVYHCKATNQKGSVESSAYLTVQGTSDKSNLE

Chain of eBRET2 VEGF biosensor Re07 (Rluc8 - VEGF receptor 2 domains 2 and 3 - GFP2) (human) (P35968 20-764): as the sequence (P35968 20-764) above

recombinant human VEGF (Active Max VEGF-A165) (ligand)
maximum Delta eBRET2 ratio (ΔBR) at 4 ng/ml VEGF, biosensor at 400,000 RLU [1]: 27.7 mBU | maximum Delta eBRET2 ratio (ΔBR) at 1 μg/ml VEGF, biosensor at 200,000 RLU [2]: 62.6 mBU | maximum Delta eBRET2 ratio (ΔBR) at 1 μg/ml VEGF, biosensor at 800,000 RLU [2]: 100 mBU | Delta eBRET2 ratio (ΔBR) at 1000 pg/ml VEGF, biosensor at 200,000 RLU [3]: 41 mBU | maximum Delta eBRET2 ratio (ΔBR) at 1000 pg/ml VEGF, biosensor at 400,000 RLU [3]: 106 mBU | Delta eBRET2 ratio (ΔBR) at 0.1 ng/ml VEGF, biosensor at 200,000 RLU [4]: 2.95 mBU | Delta eBRET2 ratio (ΔBR) at 100 ng/ml VEGF, biosensor at 200,000 RLU [4]: 42.5 mBU
